For assay [1], the target named is native free LIGHT (TNFSF14) in serum and plasma samples (UniProt O43557). Put plainly: antibody competition: serum and plasma samples incubated with 50 µg/mL free capture antibody for 35 minutes before the Simoa free LIGHT assay; treated against untreated sample concentration.
The target of assay [2] is LIGHT standard recombinant antigen (UniProt O43557). Nature of the assay: Simoa sandwich immunoassay, Enzo ALX-804-841-C100 capture with ProSci RF16062 detection, free LIGHT in diluent; uninhibited signal in the inhibition formula.
Assay [3] shares this target. Put plainly: Simoa sandwich immunoassay, Enzo ALX-804-841-C100 capture with ProSci RF16062 detection, free LIGHT in diluent; signal inhibited by DcR3 as competitor.

Enzo ALX-804-841-C100 (antibody) registered a % Recovery in assay [1] of 0%. Besides, the MFI turned out to be 9940 MFI in assay [2] and 361 MFI in assay [3].

(Values after patent publication US20210324066A1.)
